Source: PMC12153350, “Evolution of carbapenemase activity in the class C β-lactamase ADC-1” (mBio, 2025)

Key:
ADC-1 = biological target: T1, ADC-1 (Acinetobacter baumannii, UniProt Q9L4R5); experiment: X-ray crystal structure of acyl-enzyme (soak); conditions: covalent; acyl-enzyme at Ser64; two binding modes, monomers A and B
T1 construct: gene ampC; expressed and purified as in earlier work (gene in pET24a(+)); dimer in asymmetric unit

[1] = tested on: CC1(C)S[C@@H]2[C@H](NC(=O)[C@H](N)c3ccccc3)C(=O)N2[C@H]1C(=O)O; experiment: purified protein; conditions: 50 mM sodium phosphate, pH 7.4, 22°C
[2] = tested on: C[C@@H](O)[C@H]1C(=O)N2C(C(=O)O)=C(SCCN=CN)C[C@H]12; experiment: purified protein; conditions: 50 mM sodium phosphate, pH 7.4, 22°C
[3] = tested on: C[C@@H](O)[C@H]1C(=O)N2C(C(=O)O)=C(S[C@@H]3CN[C@H](C(=O)N(C)C)C3)[C@H](C)[C@H]12; experiment: purified protein; conditions: 50 mM sodium phosphate, pH 7.4, 22°C
[4] = tested on: C[C@@H](O)[C@H]1C(=O)N2C(C(=O)O)=C(S[C@@H]3CN[C@H](C(=O)Nc4cccc(C(=O)O)c4)C3)[C@H](C)[C@H]12; experiment: purified protein; conditions: 50 mM sodium phosphate, pH 7.4, 22°C
[5] = tested on: C[C@@H](O)[C@H]1C(=O)N2C(C(=O)O)=C(S[C@@H]3CN[C@H](CNS(N)(=O)=O)C3)[C@H](C)[C@H]12; experiment: purified protein; conditions: 50 mM sodium phosphate, pH 7.4, 22°C

Row | Compound | X-ray crystal structure of acyl-enzyme (soak) (ADC-1) | kcat [1] [s⁻¹] | kcat/Km [1] [M⁻¹ s⁻¹] | Km [2] [µM] | kcat [2] [s⁻¹] | kcat/Km [2] [M⁻¹ s⁻¹] | Km [3] [µM] | kcat [3] [s⁻¹] | kcat/Km [3] [M⁻¹ s⁻¹] | Km [4] [µM] | kcat [4] [s⁻¹] | kcat/Km [4] [M⁻¹ s⁻¹] | Km [5] [µM] | kcat [5] [s⁻¹] | kcat/Km [5] [M⁻¹ s⁻¹]
1 | C[C@@H](O)[C@H]1C(=O)N2C(C(=O)O)=C(S[C@@H]3CN[C@H](C(=O)Nc4cccc(C(=O)O)c4)C3)[C@H](C)[C@H]12 [ETP, ertapenem] | The crystal structure of the ADC-1–ertapenem acyl–enzyme complex shows a clear dimorphism between the two monomers |  |  |  |  |  |  |  |  |  |  |  |  |  | 
2 | ADC-68 (Acinetobacter baumannii) |  | 3.2 ± 0.1 | ≥ 650000 | 1.0 ± 0.2 | 0.0036 ± 0.0001 | 3600 ± 700 | 50 ± 4 | 0.028 ± 0.001 | 550 ± 40 | 3.5 ± 0.7 | 0.011 ± 0.001 | 3300 ± 700 | 6.0 ± 0.4 | 0.0049 ± 0.0001 | 820 ± 60
3 | ADC-1 (Acinetobacter baumannii) |  |  |  | 1.3 ± 0.2 | 0.001 | 810 | 11 ± 1 | 0.0034 | 310 |  | 0.00037 | ≥ 370 |  |  | 
